Our source for the binding result and Kd values is article PMC8860586, “Vimentin binds to G-quadruplex repeats found at telomeres and gene promoters”.

In data set [1] the target is T1, Vimentin (Homo sapiens, UniProt P08670 2-466). Put plainly: EMSA; 150 mM KCl, pH 8.4; Job plot max 0.1 DNA fraction, two tetramers per DNA; 5 mM Tris-HCl pH 8.4, 150 mM KCl; FA 5 nM DNA at 25 C; EMSA 500 nM DNA + 8 uM vimentin, 1 h room temperature, 1.5% agarose 0.5x TBE + 10 mM KCl, run at 4 C. As to conditions: protein: commercial; chain copies: 4; four adjacent G4s. Background: Mobility shift assays separate free from complexed probe on a gel.

The target of data set [2] is T1, Vimentin. Briefly: EMSA; no KCl, pH 8.4; 5 mM Tris-HCl pH 8.4, 150 mM KCl; FA 5 nM DNA at 25 C; EMSA 500 nM DNA + 8 uM vimentin, 1 h room temperature, 1.5% agarose 0.5x TBE + 10 mM KCl, run at 4 C. As to conditions: protein: commercial; chain copies: 4; unfolded single strand.
The target of data set [3] is T1, Vimentin. Put plainly: EMSA; 150 mM KCl, pH 8.4; 5 mM Tris-HCl pH 8.4, 150 mM KCl; FA 5 nM DNA at 25 C; EMSA 500 nM DNA + 8 uM vimentin, 1 h room temperature, 1.5% agarose 0.5x TBE + 10 mM KCl, run at 4 C. The note with it: protein: commercial, chain copies: 4.
The target of data set [4] is T1, Vimentin. Briefly: fluorescence anisotropy; 150 mM KCl, pH 8.4, 25 C; tetramer concentration, 1:1 fit; 5 mM Tris-HCl pH 8.4, 150 mM KCl; FA 5 nM DNA at 25 C; EMSA 500 nM DNA + 8 uM vimentin, 1 h room temperature, 1.5% agarose 0.5x TBE + 10 mM KCl, run at 4 C. The note with it: protein: commercial; chain copies: 4; label: 5'-6-FAM; two adjacent G4s. On the technique in general: Polarisation of emitted light reports the rotation of a fluorescent probe.

Data set [5] addresses T1, Vimentin. Briefly: EMSA; 150 mM KCl, pH 8.4; two complexes; 5 mM Tris-HCl pH 8.4, 150 mM KCl; FA 5 nM DNA at 25 C; EMSA 500 nM DNA + 8 uM vimentin, 1 h room temperature, 1.5% agarose 0.5x TBE + 10 mM KCl, run at 4 C. As to conditions: protein: commercial; chain copies: 4; three adjacent G4s.

T1 sequence (P08670 2-466): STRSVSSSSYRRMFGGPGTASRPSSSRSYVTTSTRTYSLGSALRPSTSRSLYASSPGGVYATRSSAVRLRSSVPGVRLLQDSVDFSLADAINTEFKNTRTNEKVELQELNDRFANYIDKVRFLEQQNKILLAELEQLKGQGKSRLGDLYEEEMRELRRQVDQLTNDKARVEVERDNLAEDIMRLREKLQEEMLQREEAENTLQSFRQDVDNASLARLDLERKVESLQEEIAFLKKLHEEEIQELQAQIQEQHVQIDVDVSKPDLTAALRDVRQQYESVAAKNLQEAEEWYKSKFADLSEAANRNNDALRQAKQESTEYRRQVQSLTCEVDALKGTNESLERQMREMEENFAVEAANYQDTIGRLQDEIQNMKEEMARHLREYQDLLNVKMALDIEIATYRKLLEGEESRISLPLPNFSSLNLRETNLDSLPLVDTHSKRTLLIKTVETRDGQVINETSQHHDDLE

B1: 4TEL (structured_DNA)
DNA: TTAGGGTTAGGGTTAGGGTTAGGGTTAGGGTTAGGGTTAGGGTTAGGGTTAGGGTTAGGGTTAGGGTTAGGGTTAGGGTTAGGGTTAGGGTTAGGG
B1: the binding result with Vimentin [1] is given as “binds”.

Consider TGGCCCTGGTGGGCGGAGGCAAAGGGGGAGCCAGGGGCGGAGAAAGGGT (ssDNA) [G-rich noG4], for which, in the data set with Vimentin [2], the binding result is listed as “binds”.

On to CGGGCGGGCGCGAGGGAGGGGAGGCGAGGAGGGGCGTGGCCGGC (structured_DNA) [KIT2KIT*], for which the binding result with Vimentin [3] (two adjacent G4s) is given as “binds”.

For TTAGGGTTAGGGTTAGGGTTAGGG (structured_DNA) [TEL], in the data set with Vimentin [3] (single G4), the binding result is on record as “no binding”.

As a reminder, the Kd is the free concentration of one partner at which half of the binding sites on the other are occupied at equilibrium, for simple one-to-one binding. Take TTAGGGTTAGGGTTAGGGTTAGGGTTAGGGTTAGGGTTAGGGTTAGGG (structured_DNA) [FAM-2TEL]: in the data set with Vimentin [4], the Kd was 25.7 ± 2.4 nM.

B2: hTERT (structured_DNA)
DNA: GGGGAGGGGCTGGGAGGGCCCGGAGGGGGCTGGGCCGGGGACCCGGGAGGGGTCGGGACGGGGCGGGG
As for B2, the binding result in the data set with Vimentin [3] (G4 repeat) is “binds”.

Turning to GGCGAGGAGGGGCGTGGCCGGC (structured_DNA) [KIT*], in the data set with Vimentin [3] (single G4), the binding result is given as “no binding”.

On to CGGGCGGGCGCGAGGGAGGGG (structured_DNA) [KIT2], for which the binding result in the data set with Vimentin [3] (single G4) is recorded as “no binding”.

B3: ILPR (structured_DNA)
DNA: ACAGGGGTGTGGGGACAGGGGTGTGGGGACAGGGGTGTGGGGACAGGGGTGTGGGG
For B3, in the data set with Vimentin [3] (G4 repeat), the binding result is “binds”.

B4: 3TEL (structured_DNA)
DNA: TTAGGGTTAGGGTTAGGGTTAGGGTTAGGGTTAGGGTTAGGGTTAGGGTTAGGGTTAGGGTTAGGGTTAGGG
Regarding B4, in the data set with Vimentin [5], the binding result was “binds”.
